# Test results from patent publication US20230134571A1 (INTERNATIONAL AIDS VACCINE INITIATIVE, published 2023).
# B1: ePGDM9 (antibody, V domains shown)
# VH: QAQLVQSGPEVRKPGTSVKVSCKNPGNTLTTYDLHWVRQVPGQGLQWMGWISHEGDKKVIVERFKAKVTIDWDRSTNTAYLQLSGLTSEDTAVYYCAKGSKHRLRDYALYDEDGALNWAVDVDYLANLEFWGQGTAVTVSS
# VL: DIVLTQSPLSLSVTPGESASISCKSSQSLIHGDRNNYLAWYVQKPGRSPQLLIDLASERASGVPDRFSGSGSRKDFTLKISRVETEDVGTYYCMQGRESPWTFGQGTKVDIK
# Columns and labels:
# Test in all cases: cell-based or functional assay
# [1] = target: HIV Env, isolate 20915593 (HIV)
# [2] = target: HIV Env, isolate 21492713_B11_E3 (HIV)
# [3] = target: HIV Env, isolate 19314479_A2_5 (HIV)
# [4] = target: HIV Env, isolate CT810_G4-7 (HIV)
# MuLV (Neg. Control) = target: MuLV (Neg. Control)
# [5] = target: HIV Env, isolate Ce1172_H1 (HIV)
# [6] = target: HIV Env, isolate ZM135M.PL10a (HIV)
# [7] = target: HIV Env, isolate Ce703010131_1E2 (HIV)
# [8] = target: HIV Env, isolate Ce2052_G10 (HIV)
binder,measurement,setting,value
B1,IC50,[1],4 ng/mL
same,IC80,[1],0.015 µg/mL
same,IC50,[2],> 50 µg/mL
same,IC80,[2],> 50 µg/mL
same,IC50,[3],< 0.6 ng/mL
same,IC80,[3],1 ng/mL
same,IC50,[4],0.087 µg/mL
same,IC80,[4],5.53 µg/mL
same,IC50,MuLV (Neg. Control),> 50 µg/mL
same,IC80,MuLV (Neg. Control),> 50 µg/mL
same,IC50,[5],7 ng/mL
same,IC80,[5],0.02 µg/mL
same,IC50,[6],> 50 µg/mL
same,IC80,[6],> 50 µg/mL
same,IC50,[7],< 0.6 ng/mL
same,IC80,[7],4 ng/mL
same,IC50,[8],1 ng/mL
same,IC80,[8],5 ng/mL
